In patent publication US20150037332A1, “TREATMENT OF METASTIC BREAST CANCER” (GENENTECH, INC., priority 2008, published 2015):

Columns and labels:
[1] = system: non-small cell lung cancer (NSCLC) and breast cancer tumors (low and high HER2 expression levels); assay: Nonclinical dose-response xenograft studies; assay type: in vivo; conditions: nude mice, NSCLC and breast cancer xenografts
[2] = cited from earlier work
[3] = Phase II study with gemcitabine in platinum-resistant ovarian cancer (TOC3258g), PK; assay type: in vivo, human
[4] = Clinical trials as of November 2006, torsades de pointes; assay type: in vivo, human; conditions: pertuzumab-treated patients
[5] = Preliminary population PK analysis of Studies TOC2297g, TOC2689g and B016934; assay type: in vivo, human; conditions: 153 patients, 1458 concentration-timepoints
[6] = Phase II single-agent Study BO16934 (metastatic breast cancer), serum pharmacokinetics; assay type: in vivo, human; conditions: for CL, systemic clearance (mean ± SD) / Vc, volume of central compartment (mean ± SD) / Vss, steady-state volume of distribution (mean ± SD) / t1/2 initial, initial distribution half-life (mean ± SD) / t1/2 terminal, terminal half-life (mean ± SD): intravenous infusion, 2-compartment population PK model
Text: (§1) Mean serum Cmin and Cmax for the first two cycles of treatment in ovarian and metastatic breast cancer (MBC) patients are presented in Table 3.
(§2) PK parameters were estimated using a two-compartment model (see Table 4).

[7] = Multi-dose intravenous toxicity and toxicokinetic studies (Studies 00-377-1821 and 01-458-1821), cardiac endpoints; assay type: in vivo; conditions: 7-week and 26-week intravenous studies, cynomolgus monkeys
Experimental: In a 7-week intravenous toxicity and toxicokinetic study in cynomolgus monkeys with a 4-week recovery period (Study 00-377-1821), telemetry was measured in two animals per sex in the control and high-dose (150 mg/kg/dose) groups to collect electrocardiographic endpoints. At two timepoints before the initiation of treatment, and on Days 1 and 28, telemetered animals had systolic, diastolic, and mean arterial blood pressure, heart rate, PR interval, QRS, QT, and Lead II ECG data recorded. Four 1-minute tracings were collected for each animal from 2 to 22 hours after dosing and interpreted by a board-certified veterinary cardiologist. In addition to the routine serum chemistry parameters evaluated, serum was also analyzed for creatinine kinase isozymes and Troponin T on Study Days 2/3 and 44/45 for all animals. […] Recordings were taken at two timepoints before the initiation of treatment and once during Weeks 4, 16, and 26 on anesthetized animals and were interpreted by a board-certified veterinary cardiologist. In addition to the routine serum chemistry parameters evaluated, serum was also analyzed for Troponin T on Day 1 predose and on Days 114, 184, and 239 (recovery) for all animals.

[8] = Phase II single-agent studies TOC2689g and BO16934 taken together, serum pharmacokinetics; assay type: in vivo, human
Text: (§3) Population PK modeling of data from Phase Ia and Phase II studies support the continued use of fixed, non-weight-based dosing in female patients.
as §1, §2

[9] = system: previously treated HER2-positive metastatic breast cancer; conditions: in combination with trastuzumab; 11 patients enrolled; cited from earlier work
[10] = system: incurable, locally advanced, recurrent or metastatic solid tumors; conditions: cited from earlier work
[11] = Phase II single-agent Study TOC2689g (ovarian cancer), serum pharmacokinetics; assay type: in vivo, human; conditions: for CL, systemic clearance (mean ± SD) / Vc, volume of central compartment (mean ± SD) / Vss, steady-state volume of distribution (mean ± SD) / t1/2 initial, initial distribution half-life (mean ± SD) / t1/2 terminal, terminal half-life (mean ± SD): intravenous infusion, 2-compartment population PK model
Text: as §1, §2

[12] = Phase Ib combination studies with capecitabine (BO17003) and docetaxel (BO17021), PK; assay type: in vivo, human
Text: In both studies, the PK parameters for pertuzumab were similar to the PK parameters obtained in single-agent pertuzumab studies.

[13] = Previous pertuzumab studies, PK summary (two-compartment model); assay type: in vivo, human
Text: as §3

[14] = two-compartment model, Studies TOC2689g and BO16934
[15] = Phase I, intravenously every 3 weeks
[16] = two-compartment model, typical patient

## pertuzumab: antibody comprising the light and heavy chain amino acid sequences in SEQ ID NOs. 7 and 8; HER dimerization inhibitor binding HER2
[1]
  steady-state trough concentrations at which >80% suppression of tumor growth was achieved: 5 to 25 µg/mL
[1]; steady-state trough concentrations 5-25 μg/mL
  suppression of tumor growth: > 80%
[2]; Phase I patients
  antibodies to pertuzumab: not detected
[2]; doses of 2.0-15 mg/kg
  linearity of pharmacokinetics: linear
[3]; in combination with gemcitabine
  serum concentrations of pertuzumab compared with single-agent Phase II studies: similar
[3]; preliminary PK analysis
  effect on the PK of gemcitabine or its major metabolite, dFdU: does not alter the PK
[4]
  association with an increase of TdP: no association noted
[5]
  population variability of steady-state trough concentration and exposure with fixed-dosing, body surface area-based dosing, and weight-based dosing: similar
[6]; 420 mg (n = 40), Cycle 1
  Cmax, mean peak serum concentration: 202.9 µg/mL
  Cmin, mean (±SD) trough serum concentration: 56.5 (±21.2) μg/mL
[6]; 420 mg (n = 40), Cycle 2
  Cmax, mean peak serum concentration: 181.2 µg/mL
  Cmin, mean (±SD) trough serum concentration: 62.6 (±21.1) μg/mL
[6]; 420 mg (n = 40)
  CL, systemic clearance (mean ± SD): 0.255 ± 0.096 L/day
  Vc, volume of central compartment (mean ± SD): 2.98 ± 0.67 L
  Vss, steady-state volume of distribution (mean ± SD): 5.12 ± 0.98 L
  t1/2 initial, initial distribution half-life (mean ± SD): 32.6 ± 3.12 h
  t1/2 terminal, terminal half-life (mean ± SD): 391 ± 84 h
[6]; 1050 mg (n = 35), Cycle 1
  Cmax, mean peak serum concentration: 425.6 µg/mL
  Cmin, mean (±SD) trough serum concentration: 75.9 (±34.5) μg/mL
[6]; 1050 mg (n = 35), Cycle 2
  Cmax, mean peak serum concentration: 542.9 µg/mL
  Cmin, mean (±SD) trough serum concentration: 136.6 (±53.5) μg/mL
[6]; 1050 mg (n = 35)
  CL, systemic clearance (mean ± SD): 0.225 ± 0.121 L/day
  Vc, volume of central compartment (mean ± SD): 2.95 ± 0.81 L
  Vss, steady-state volume of distribution (mean ± SD): 5.11 ± 1.12 L
  t1/2 initial, initial distribution half-life (mean ± SD): 33.4 ± 3.6 h
  t1/2 terminal, terminal half-life (mean ± SD): 492 ± 194 h
[7]
  ECGs, blood pressures, and heart rates: normal
  cardiac injury caused by treatment, by histopathology: no evidence of cardiac injury
  serum chemistry parameters (Troponin T and creatine kinase isozymes): lack of increases
[8]; 840 mg loading dose, 420 mg maintenance dose every 3 weeks, by the second treatment cycle
  steady-state serum Cmin: approximately 60 mg/mL
[8]; loading dose 840 mg followed by 420 mg every 3 weeks
  attainment of steady-state Cmin and Cmax: by the second cycle
[8]; [14]
  mean systemic clearance, range over dose groups: 0.225 to 0.285 L/day
  mean volume of distribution of the central compartment, range over dose groups: 2.70 to 3.11 L
[9]
  partial response (PR): Two out of the 11
[10]; [15]
  confirmed partial responses: Two
  tumor regression, patients evaluable for response: 3 of 20
[10]; given intravenously every 3 weeks
  tolerability: generally well tolerated
[11]; 420 mg (n = 61), Cycle 1
  Cmax, mean peak serum concentration: 231.7 µg/mL
  Cmin, mean (±SD) trough serum concentration: 64.6 (±20.9) μg/mL
[11]; 420 mg (n = 61), Cycle 2
  Cmax, mean peak serum concentration: 237.6 µg/mL
  Cmin, mean (±SD) trough serum concentration: 66.5 (±38.0) μg/mL
[11]; 420 mg (n = 61)
  CL, systemic clearance (mean ± SD): 0.244 ± 0.095 L/day
  Vc, volume of central compartment (mean ± SD): 2.70 ± 0.39 L
  Vss, steady-state volume of distribution (mean ± SD): 4.73 ± 0.78 L
  t1/2 initial, initial distribution half-life (mean ± SD): 32.9 ± 2.88 h
  t1/2 terminal, terminal half-life (mean ± SD): 389 ± 113 h
[11]; 1050 mg (n = 62), Cycle 1
  Cmax, mean peak serum concentration: 390.9 µg/mL
  Cmin, mean (±SD) trough serum concentration: 90.1 (±68.1) μg/mL
[11]; 1050 mg (n = 62), Cycle 2
  Cmax, mean peak serum concentration: 357.2 µg/mL
  Cmin, mean (±SD) trough serum concentration: 94.7 (±47.3) μg/mL
[11]; 1050 mg (n = 62)
  CL, systemic clearance (mean ± SD): 0.285 ± 0.119 L/day
  Vc, volume of central compartment (mean ± SD): 3.11 ± 0.72 L
  Vss, steady-state volume of distribution (mean ± SD): 5.39 ± 1.31 L
  t1/2 initial, initial distribution half-life (mean ± SD): 32.2 ± 2.64 h
  t1/2 terminal, terminal half-life (mean ± SD): 379 ± 125 h
[12]; Phase Ib Studies BO17003 (capecitabine) and BO17021 (docetaxel)
  effect on the PK of capecitabine and docetaxel: does not alter the PK
[12]; in combination with capecitabine or docetaxel
  PK parameters for pertuzumab compared with single-agent pertuzumab studies: similar
[13]; docetaxel and capecitabine in Phase Ib studies, gemcitabine in a Phase II study
  impact on the PK of co-administered chemotherapeutic agents: no evidence that pertuzumab impacted the PK
[13]; doses from 2.0 to 15.0 mg/kg
  change in clearance with dose: no change in clearance
[13]; [16]
  systemic serum clearance: approximately 0.24 L/day
  terminal half-life: approximately 17 days
